Data on 15 molecules can be found in patent publication US20050112126A1 (Genentech, published 2005).

To fix the notation:
B1: pY0192 VL W96A (Fab, V domains shown)
VH: EVQLVESGGGLVQPGGSLRLSCAASGYTFTNYGINWVRQAPGKGLEWVGWINTYTGEPTYAADFKRRFTFSLDTSKSTAYLQMNSLRAEDTAVYYCAKYPHYYGSSHWYFDVWGQGTL
VL: DIQLTQSPSSLSASVGDRVTITCRANEQLSNYLNWYQQKPGKAPKVLIYFTSSLHSGVPSRFSGSGSGTDFTLTISSLQPEDFATYYCQQYSTVPATFGQGTKVEIKR
B2: pY0192 VH N31A (Fab, V domains shown)
VH: EVQLVESGGGLVQPGGSLRLSCAASGYTFTAYGINWVRQAPGKGLEWVGWINTYTGEPTYAADFKRRFTFSLDTSKSTAYLQMNSLRAEDTAVYYCAKYPHYYGSSHWYFDVWGQGTL
VL: DIQLTQSPSSLSASVGDRVTITCRANEQLSNYLNWYQQKPGKAPKVLIYFTSSLHSGVPSRFSGSGSGTDFTLTISSLQPEDFATYYCQQYSTVPWTFGQGTKVEIKR
B3: pY0192 VH W108A (Fab, V domains shown)
VH: EVQLVESGGGLVQPGGSLRLSCAASGYTFTNYGINWVRQAPGKGLEWVGWINTYTGEPTYAADFKRRFTFSLDTSKSTAYLQMNSLRAEDTAVYYCAKYPHYYGSSHAYFDVWGQGTL
VL: DIQLTQSPSSLSASVGDRVTITCRANEQLSNYLNWYQQKPGKAPKVLIYFTSSLHSGVPSRFSGSGSGTDFTLTISSLQPEDFATYYCQQYSTVPWTFGQGTKVEIKR
B4: pY0192 VH Y32A (Fab, V domains shown)
VH: EVQLVESGGGLVQPGGSLRLSCAASGYTFTNAGINWVRQAPGKGLEWVGWINTYTGEPTYAADFKRRFTFSLDTSKSTAYLQMNSLRAEDTAVYYCAKYPHYYGSSHWYFDVWGQGTL
VL: DIQLTQSPSSLSASVGDRVTITCRANEQLSNYLNWYQQKPGKAPKVLIYFTSSLHSGVPSRFSGSGSGTDFTLTISSLQPEDFATYYCQQYSTVPWTFGQGTKVEIKR
B5: pY0192 VH N52A (Fab, V domains shown)
VH: EVQLVESGGGLVQPGGSLRLSCAASGYTFTNYGINWVRQAPGKGLEWVGWIATYTGEPTYAADFKRRFTFSLDTSKSTAYLQMNSLRAEDTAVYYCAKYPHYYGSSHWYFDVWGQGTL
VL: DIQLTQSPSSLSASVGDRVTITCRANEQLSNYLNWYQQKPGKAPKVLIYFTSSLHSGVPSRFSGSGSGTDFTLTISSLQPEDFATYYCQQYSTVPWTFGQGTKVEIKR
B6: pY0192 VH S106A (Fab, V domains shown)
VH: EVQLVESGGGLVQPGGSLRLSCAASGYTFTNYGINWVRQAPGKGLEWVGWINTYTGEPTYAADFKRRFTFSLDTSKSTAYLQMNSLRAEDTAVYYCAKYPHYYGSAHWYFDVWGQGTL
VL: DIQLTQSPSSLSASVGDRVTITCRANEQLSNYLNWYQQKPGKAPKVLIYFTSSLHSGVPSRFSGSGSGTDFTLTISSLQPEDFATYYCQQYSTVPWTFGQGTKVEIKR
B7: pY0192 VH W50A (Fab, V domains shown)
VH: EVQLVESGGGLVQPGGSLRLSCAASGYTFTNYGINWVRQAPGKGLEWVGAINTYTGEPTYAADFKRRFTFSLDTSKSTAYLQMNSLRAEDTAVYYCAKYPHYYGSSHWYFDVWGQGTL
VL: DIQLTQSPSSLSASVGDRVTITCRANEQLSNYLNWYQQKPGKAPKVLIYFTSSLHSGVPSRFSGSGSGTDFTLTISSLQPEDFATYYCQQYSTVPWTFGQGTKVEIKR
B8: pY0192 VH Y99A (Fab, V domains shown)
VH: EVQLVESGGGLVQPGGSLRLSCAASGYTFTNYGINWVRQAPGKGLEWVGWINTYTGEPTYAADFKRRFTFSLDTSKSTAYLQMNSLRAEDTAVYYCAKAPHYYGSSHWYFDVWGQGTL
VL: DIQLTQSPSSLSASVGDRVTITCRANEQLSNYLNWYQQKPGKAPKVLIYFTSSLHSGVPSRFSGSGSGTDFTLTISSLQPEDFATYYCQQYSTVPWTFGQGTKVEIKR
B9: pY0192 VH F29A (Fab, V domains shown)
VH: EVQLVESGGGLVQPGGSLRLSCAASGYTATNYGINWVRQAPGKGLEWVGWINTYTGEPTYAADFKRRFTFSLDTSKSTAYLQMNSLRAEDTAVYYCAKYPHYYGSSHWYFDVWGQGTL
VL: DIQLTQSPSSLSASVGDRVTITCRANEQLSNYLNWYQQKPGKAPKVLIYFTSSLHSGVPSRFSGSGSGTDFTLTISSLQPEDFATYYCQQYSTVPWTFGQGTKVEIKR
notes: Ala-scan variant of pY0192; Fab on phage
B10: pY0192 VH D63A (Fab, V domains shown)
VH: EVQLVESGGGLVQPGGSLRLSCAASGYTFTNYGINWVRQAPGKGLEWVGWINTYTGEPTYAAAFKRRFTFSLDTSKSTAYLQMNSLRAEDTAVYYCAKYPHYYGSSHWYFDVWGQGTL
VL: DIQLTQSPSSLSASVGDRVTITCRANEQLSNYLNWYQQKPGKAPKVLIYFTSSLHSGVPSRFSGSGSGTDFTLTISSLQPEDFATYYCQQYSTVPWTFGQGTKVEIKR
notes: as for B9
B11: pY0192 VH E57A (Fab, V domains shown)
VH: EVQLVESGGGLVQPGGSLRLSCAASGYTFTNYGINWVRQAPGKGLEWVGWINTYTGAPTYAADFKRRFTFSLDTSKSTAYLQMNSLRAEDTAVYYCAKYPHYYGSSHWYFDVWGQGTL
VL: DIQLTQSPSSLSASVGDRVTITCRANEQLSNYLNWYQQKPGKAPKVLIYFTSSLHSGVPSRFSGSGSGTDFTLTISSLQPEDFATYYCQQYSTVPWTFGQGTKVEIKR
notes: as for B9
B12: pY0192 VH A61S (Fab, V domains shown)
VH: EVQLVESGGGLVQPGGSLRLSCAASGYTFTNYGINWVRQAPGKGLEWVGWINTYTGEPTYSADFKRRFTFSLDTSKSTAYLQMNSLRAEDTAVYYCAKYPHYYGSSHWYFDVWGQGTL
VL: DIQLTQSPSSLSASVGDRVTITCRANEQLSNYLNWYQQKPGKAPKVLIYFTSSLHSGVPSRFSGSGSGTDFTLTISSLQPEDFATYYCQQYSTVPWTFGQGTKVEIKR
notes: as for B9
B13: pY0192 VH D111A (Fab, V domains shown)
VH: EVQLVESGGGLVQPGGSLRLSCAASGYTFTNYGINWVRQAPGKGLEWVGWINTYTGEPTYAADFKRRFTFSLDTSKSTAYLQMNSLRAEDTAVYYCAKYPHYYGSSHWYFAVWGQGTL
VL: DIQLTQSPSSLSASVGDRVTITCRANEQLSNYLNWYQQKPGKAPKVLIYFTSSLHSGVPSRFSGSGSGTDFTLTISSLQPEDFATYYCQQYSTVPWTFGQGTKVEIKR
notes: as for B9
B14: pY0192 VH A62S (Fab, V domains shown)
VH: EVQLVESGGGLVQPGGSLRLSCAASGYTFTNYGINWVRQAPGKGLEWVGWINTYTGEPTYASDFKRRFTFSLDTSKSTAYLQMNSLRAEDTAVYYCAKYPHYYGSSHWYFDVWGQGTL
VL: DIQLTQSPSSLSASVGDRVTITCRANEQLSNYLNWYQQKPGKAPKVLIYFTSSLHSGVPSRFSGSGSGTDFTLTISSLQPEDFATYYCQQYSTVPWTFGQGTKVEIKR
notes: as for B9
B15: pY0192 VH F64A (Fab, V domains shown)
VH: EVQLVESGGGLVQPGGSLRLSCAASGYTFTNYGINWVRQAPGKGLEWVGWINTYTGEPTYAADAKRRFTFSLDTSKSTAYLQMNSLRAEDTAVYYCAKYPHYYGSSHWYFDVWGQGTL
VL: DIQLTQSPSSLSASVGDRVTITCRANEQLSNYLNWYQQKPGKAPKVLIYFTSSLHSGVPSRFSGSGSGTDFTLTISSLQPEDFATYYCQQYSTVPWTFGQGTKVEIKR
notes: as for B9

The assay deals with T1, VEGF (human, UniProt P15692-4 27-191, limits assumed).
T1 construct: Biotinylated in the KDR-IgG ELISA, amine-coupled to the chip in BIAcore; also called biotinylated VEGF; vascular endothelial growth factor
T1 sequence (P15692 other isoform, or with tags, fused parts or gaps limits assumed): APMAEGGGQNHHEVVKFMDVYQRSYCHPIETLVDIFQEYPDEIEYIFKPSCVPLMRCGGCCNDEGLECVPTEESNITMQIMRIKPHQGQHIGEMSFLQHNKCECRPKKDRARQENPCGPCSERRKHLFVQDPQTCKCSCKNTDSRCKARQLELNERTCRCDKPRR
Put plainly: competitive phage-ELISA, relative to pY0192. On the procedure:
In such an assay, phages were first serially diluted to determine a fractional saturation titer which was then held constant and used to incubate with varying concentrations of VEGF (starting at 200 nM to 0 nM) in solution. The mixture was then transferred onto plate precoated with VEGF (2 μg/mL) and blocked with 5% instant milk, and allowed to equilibrate for 1 hour at room temperature. Thereafter, the phage solution was removed and the remaining bound phages were detected with a solution of rabbit anti-phage antibody mixed with goat anti-rabbit conjugate of horse radish peroxidase. After an hour incubation at room temperature, the plate was developed with a chromogenic substrate, o-phenylenediamine (Sigma). The reaction was stopped with addition of ½ volume of 2.5 M H₂SO₄. Optical density at 492 nm was measured on a spectrophotometric plate reader.
IC50's were determined in a competitive phage-ELISA assay.
Turning to B1, the IC50 (mut)/IC50 (wt) was more than 150.

On to B2, for which the IC50 (mut)/IC50 (wt) is more than 150.

In turn, B3 showed an IC50 (mut)/IC50 (wt) of more than 150.

The molecule B4 returned an IC50 (mut)/IC50 (wt) of more than 150.

For B5, the IC50 (mut)/IC50 (wt) is more than 150.

In turn, B6 registered an IC50 (mut)/IC50 (wt) of more than 150.

B7 yielded an IC50 (mut)/IC50 (wt) of more than 150.

As to B8, the IC50 (mut)/IC50 (wt) is more than 150.

For the molecule B9, the “IC50 (mut)/IC50 (wt)” value is 16 ratio.

As to B10, the “IC50 (mut)/IC50 (wt)” value turned out to be 1 ratio.

Consider B11, for which the “IC50 (mut)/IC50 (wt)” value is 2 ratio.

With B12, the “IC50 (mut)/IC50 (wt)” value was determined as 1 ratio.

Take B13: the “IC50 (mut)/IC50 (wt)” value amounted to 2 ratio.

Consider B14, for which the “IC50 (mut)/IC50 (wt)” value stood at 1 ratio.

Turning to B15, the “IC50 (mut)/IC50 (wt)” value was 1 ratio.
